The supplement of paper PMC12764529
± gives the half width of the 95% confidence interval.

experiment: folding stability dG unfold (combined trypsin and chymotrypsin); higher = more stable
In short: (§1)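 Sequencing followed digestion of designed mini-proteins with trypsin and chymotrypsin, each at 11 concentrations in threefold dilutions together with a no-protease condition. The mini-proteins were under 80 residues, had no cysteine, sat in a PA-tagged cDNA display construct, and were kept only if AlphaFold2 dimer inter-PAE was above 15. From the counts, Bayesian fitting gave K50, and unfolding free energy was derived against a sequence-predicted unfolded-state K50 and a shared folded-state K50, per protease or combined.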

Sequence | folding stability dG unfold
SAGGSAGGPLVVILPDPETGLFHVRVRYPDGTVESLGPFPSLEEALEALPSEGLGRVEVRPYLKSAGGSAGG [r6_307_TrMRF] | 1.28 ± 0.049 kcal/mol
PFDIRINVEYERDPDNGKEYIEVSIMVWDGNPEQARDIAKEILEEHFGWKIKDVKVERFPDMYMITFKIRLS [r1_337_TrROS] | 3.78 ± 0.32 kcal/mol
SAGGMPLVELEIVLPKEELEKLEEALRKLGYKVVKIEVVEYDPENDLVRVRIVLEKPMTLEELKKALKSAGG [r13_725_TrROS_Hall] | 4.63 ± 0.61 kcal/mol
SAGGSAGGSAGMLIELTVETSVTTVSTPDATFTVVTLKEPGKPETLGTVVYDPATGSPALSAGGSAGGSAGG [r11_645_JUSTAS] | 0.168 ± 0.14 kcal/mol
SIINALREALKDGKPGQEIPIMMPPDGMGELMNWLQDYGFKPKKMEPMPMNNRPMYTHEFTIDPKNGKFRSA [r9_498_TrROS] | 0.0967 ± 0.29 kcal/mol
SAGGSAGGSAMKTYTLEQIEELLKSLPEEEIEEVKIEEKEGKKVIYVKTKDGREIEIVVEPSAGGSAGGSAG [r3_291_TrROS_Hall] | 2.98 ± 0.13 kcal/mol
SAGTVRLEVTVVIKLTKEQIENLPKDVKLEDGAEIEEKDDYLVIKRTIELPPPVVTDKDGKKLPLEELSAGG [r19_148_TrROS_Hall] | 0.938 ± 0.32 kcal/mol
SAGGIWIPIDRIREALKDGMPLDEIVDKLRKHGFPIDRITGIEPSPNSWTIEIEFPEQGMPIEIQISSAGGS [r8_179_TrROS] | 1.9 ± 0.085 kcal/mol
SMLYRVTTVVVRGDRPLVIPVLADSLEAFLEEAREAIPPELREELPPDAVVRVFVEPVPAVVPEPGEPLPSA [r9_111_TrMRF] | 1.77 ± 0.25 kcal/mol
SAGGMLILIKVKNKKYEIEINGKKIEVEEKDGYLIIKVSPEALEALKKIPNLENIEEIKIFPEEELKSAGGS [r8_493_TrROS_Hall] | 2.32 ± 0.089 kcal/mol
SAGGGKTVVLVTHPDGTPTTITFDPEKPVATITYPDGTTETLPVPPDKTIADLAKALPADYTAVFAPASAGG [r13_696_TrMRF] | 0.419 ± 0.13 kcal/mol
SAGGGFEEIIEKAIAKAKELFPDTGAVVPITETVYDPVKKKPIVIEVLVEFDKDGKIKKVEILKISELSAGG [r13_770_TrMRF] | 2.09 ± 0.11 kcal/mol
SAEMTEEERARRLAEKLREELEELGVEKVEIEFDEEERRVTVRVTLSPEVREKLAERLGLSREELDALLSAG [r14_688_TrROS_Hall] | 3.43 ± 0.079 kcal/mol
SAGGSAGGSAGGVIVLKSDNSVIIITKKVYTENGKPKKTIIEKKNLKKKPPKPLSIEIISAGGSAGGSAGGS [r10_1043_JUSTAS] | 0.681 ± 0.15 kcal/mol
SAGGSAGGSMRLTVEVSSLEEAEKLAEEIEERFDVEIVRVEVEETEEGGLRVTFDVKLHPDLGSAGGSAGGS [r12_577_TrMRF] | 2.82 ± 0.18 kcal/mol
SAGGSAGGSAGGKPKIEIELTFIDEDGYAYRLRAEIEIDEDGNVHIEVEIEKVPLPEGLSAGGSAGGSAGGS [r10_563_TrROS_Hall] | 3.18 ± 0.21 kcal/mol
SAGGSAGGPPVEERELTLPDGTRLTITRYPDSYTVEVTLPDGTVETRTYPDVTPEEAVAAVKAASAGGSAGG [r6_459_JUSTAS] | 1.85 ± 0.051 kcal/mol
SITIMVDNLPPGATAEELASTLFNWIQQFGWEVTPIKITPMPDNWVTVEIEFKNNGKPIFRETIEFRPDASA [r9_953_TrROS] | 3.26 ± 0.09 kcal/mol
SAGGSAGGYRIRFKNGIEFKLPMTEGELKKMADNFPGFEVTEVEPVPPPPPPPEDLPPEQREQMSAGGSAGG [r6_881_TrROS] | -0.0695 ± 0.32 kcal/mol
SAGGSAGGSAGSIKEALKKLKPGDTVEIEITLKDGSKIKIRVKVIRDKKTKKYKVKIEIESAGGSAGGSAGG [r11_343_TrROS_Hall] | 3.99 ± 0.31 kcal/mol
GSSMTVEVSESVVPGTGKKILHVTVTFGGSDPEVARAQALAYVEKETGLPVVSVTVTRAPDSWTVNMTVVGS [r1_337_JUSTAS] | 2.81 ± 0.083 kcal/mol

experiment: folding stability dG unfold from chymotrypsin proteolysis; higher = more stable
In short: as §1

Sequence | folding stability dG unfold
SAGGSAGGSAGMKIRIELPGMSPEQIEELAKLIPNVRVSITYDKETNRVYVEIEVSEEDLSAGGSAGGSAGG [r11_862_TrROS_Hall] | 3.21 ± 0.052 kcal/mol
SAGGRLVRIKVDIYSPGDGEPHEFEFLLHVDANGSVEIYFPNGKRIRIPPNMKVKIKDIEVLDPDQISAGGS [r16_223_TrROS] | 3.45 ± 0.11 kcal/mol
SKKTVTIELYVPNMTPEQLRALLEALGYKVKKEEFDEDRGVVRLTVELPEDGTTITITIVRPPLPPGEKPSA [r9_1090_TrROS_Hall] | 2.54 ± 0.046 kcal/mol
SAGGSAGGSAGMRYEIEVEEVPPGLVRIRVRVDGKEYTILISEEEAKRLAEELGVEIEPVSAGGSAGGSAGG [r17_109_TrROS_Hall] | 2.28 ± 0.07 kcal/mol
SMVTETSEEVKLPSPVRLLIDKKITTFPESGVVEVPTLVTVIPPSGPDTTLPYRVLYTINDDTYTEKRLLSA [r9_154_JUSTAS] | -0.0857 ± 0.12 kcal/mol
SAGGSAGGSAGMSVSLTSTTVSLPPELLSPEEAARTEDAVVTTTTSTLPAVVDPATGTVTSAGGSAGGSAGG [r17_310_JUSTAS] | 0.518 ± 0.043 kcal/mol
SAGGSAGGSAMRINIKLPGVETESVEVDPEKGMITARLKFPEGRKVEISFFPDGNVKIHPVSAGGSAGGSAG [r3_348_TrROS] | 0.751 ± 0.066 kcal/mol
SAGGSAGGSAGKKKKIFLIKIEVVKVKVEKRKKKDGKLEEKVEIEIKIEITEIPLPPELLSAGGSAGGSAGG [r11_24_TrROS_Hall] | 3.02 ± 0.058 kcal/mol
SGVLVVTHPDGSVSTVPFTHPDGLVVDISAGVDAPLYATVVRLLPDGTPEPLPVFEFDSIEDVLEALAEASA [r9_942_TrMRF] | 1.983 ± 0.014 kcal/mol
SAGGSAGGSAGMKTVTVTVPPSAGVDAVREALAAQGMTVTSVSREGDTLTVTTEAPPELLSAGGSAGGSAGG [r11_672_JUSTAS] | 0.294 ± 0.08 kcal/mol
SAGMPLSVEEAIALLRKEIEAIPVPPSVTEIEFEITIPADGRPVKITVKVNEGKLEITVTVGDKPIKIGSAG [r14_199_JUSTAS] | 2.3 ± 0.07 kcal/mol
SAGGSAGGSAGGMKIKTITGDPSTGVYTITFPDGKVETIPMTQEEVEALAKENPGIEITLSAGGSAGGSAGG [r7_175_JUSTAS] | 2.81 ± 0.049 kcal/mol
SAGGPRVFRLTYLDPETGEPRELRFSLPVPPAPDFISVYVNVPPELARRIAELLRELYPDKPVLVHRSAGGS [r8_437_TrMRF] | 2.971 ± 0.019 kcal/mol
SAGGMLRIRIDGREIEIGMTVEEILAAIEKELGREISPELREALRKAKTPEEIVEALRKLGLKIEIESAGGS [r16_601_TrROS_Hall] | 5.17 ± 0.086 kcal/mol
SAGGSAKPEKVIVLEIEIEMTPEEVKKLVEELLKEKFGVEIERIEVEVERLPDGTLKVRVRVVIRESAGGSA [r15_138_TrROS_Hall] | 2.94 ± 0.12 kcal/mol
SAGMKVTTKTYTLTLTLPDGTRELKVTFTTPPDGYTATITDPNSSKVITLPFSSEEEARSAIEAIAARLSAG [r5_480_JUSTAS] | 2.7 ± 0.06 kcal/mol
SAGGSAGGSAGGLEIVKEVIKNPLKNEPVEVLILIEKKEEPIEKTDLFEIPVKITIIPLSAGGSAGGSAGGS [r10_459_JUSTAS] | 0.152 ± 0.16 kcal/mol
SAGGSAGGSKITVERNEDGELFVRITFKDGKTITIKAKSVEELKEKLKELGFDVKVEVVERKPSAGGSAGGS [r20_124_TrROS_Hall] | 4.58 ± 0.071 kcal/mol
SAGSMPPSTTTSEEVTVGGKKVKRTTTVYRAPNGTPSVTSTYTLGETPGVEDPLSGKALTPEERAAAAASAG [r5_138_JUSTAS] | 0.564 ± 0.28 kcal/mol
SAGGSAGGSAGKLKIKKVKVVKTETFTLPNGYTIKVSYVEVEVDGKKYLFKSVEIYPKKESAGGSAGGSAGG [r11_129_TrROS_Hall] | 3.09 ± 0.033 kcal/mol
SAGGSAGGPLVVILPDPETGLFHVRVRYPDGTVESLGPFPSLEEALEALPSEGLGRVEVRPYLKSAGGSAGG [r6_307_TrMRF] | 1.44 ± 0.038 kcal/mol

Sequence | folding stability dG unfold
PFDIRINVEYERDPDNGKEYIEVSIMVWDGNPEQARDIAKEILEEHFGWKIKDVKVERFPDMYMITFKIRLS [r1_337_TrROS] | 4.18 ± 0.082 kcal/mol
SAGGMPLVELEIVLPKEELEKLEEALRKLGYKVVKIEVVEYDPENDLVRVRIVLEKPMTLEELKKALKSAGG [r13_725_TrROS_Hall] | 4.74 ± 0.18 kcal/mol
SAGGSAGGSAGMLIELTVETSVTTVSTPDATFTVVTLKEPGKPETLGTVVYDPATGSPALSAGGSAGGSAGG [r11_645_JUSTAS] | -0.959 ± 0.39 kcal/mol
SIINALREALKDGKPGQEIPIMMPPDGMGELMNWLQDYGFKPKKMEPMPMNNRPMYTHEFTIDPKNGKFRSA [r9_498_TrROS] | 0.26 ± 0.26 kcal/mol
SAGGSAGGSAMKTYTLEQIEELLKSLPEEEIEEVKIEEKEGKKVIYVKTKDGREIEIVVEPSAGGSAGGSAG [r3_291_TrROS_Hall] | 3.19 ± 0.052 kcal/mol
SAGTVRLEVTVVIKLTKEQIENLPKDVKLEDGAEIEEKDDYLVIKRTIELPPPVVTDKDGKKLPLEELSAGG [r19_148_TrROS_Hall] | 1.4 ± 0.087 kcal/mol
SAGGIWIPIDRIREALKDGMPLDEIVDKLRKHGFPIDRITGIEPSPNSWTIEIEFPEQGMPIEIQISSAGGS [r8_179_TrROS] | 1.66 ± 0.035 kcal/mol
SMLYRVTTVVVRGDRPLVIPVLADSLEAFLEEAREAIPPELREELPPDAVVRVFVEPVPAVVPEPGEPLPSA [r9_111_TrMRF] | 2.03 ± 0.069 kcal/mol
SAGGMLILIKVKNKKYEIEINGKKIEVEEKDGYLIIKVSPEALEALKKIPNLENIEEIKIFPEEELKSAGGS [r8_493_TrROS_Hall] | 2.57 ± 0.033 kcal/mol
SAGGGKTVVLVTHPDGTPTTITFDPEKPVATITYPDGTTETLPVPPDKTIADLAKALPADYTAVFAPASAGG [r13_696_TrMRF] | 0.696 ± 0.069 kcal/mol
SAGGGFEEIIEKAIAKAKELFPDTGAVVPITETVYDPVKKKPIVIEVLVEFDKDGKIKKVEILKISELSAGG [r13_770_TrMRF] | 1.34 ± 0.044 kcal/mol
SAEMTEEERARRLAEKLREELEELGVEKVEIEFDEEERRVTVRVTLSPEVREKLAERLGLSREELDALLSAG [r14_688_TrROS_Hall] | 2.914 ± 0.023 kcal/mol
SAGGSAGGSAGGVIVLKSDNSVIIITKKVYTENGKPKKTIIEKKNLKKKPPKPLSIEIISAGGSAGGSAGGS [r10_1043_JUSTAS] | 0.374 ± 0.27 kcal/mol
SAGGSAGGSMRLTVEVSSLEEAEKLAEEIEERFDVEIVRVEVEETEEGGLRVTFDVKLHPDLGSAGGSAGGS [r12_577_TrMRF] | 2.94 ± 0.098 kcal/mol
SAGGSAGGSAGGKPKIEIELTFIDEDGYAYRLRAEIEIDEDGNVHIEVEIEKVPLPEGLSAGGSAGGSAGGS [r10_563_TrROS_Hall] | 3.28 ± 0.13 kcal/mol
SAGGSAGGPPVEERELTLPDGTRLTITRYPDSYTVEVTLPDGTVETRTYPDVTPEEAVAAVKAASAGGSAGG [r6_459_JUSTAS] | 1.927 ± 0.013 kcal/mol
SITIMVDNLPPGATAEELASTLFNWIQQFGWEVTPIKITPMPDNWVTVEIEFKNNGKPIFRETIEFRPDASA [r9_953_TrROS] | 3.56 ± 0.06 kcal/mol
SAGGSAGGYRIRFKNGIEFKLPMTEGELKKMADNFPGFEVTEVEPVPPPPPPPEDLPPEQREQMSAGGSAGG [r6_881_TrROS] | 0.148 ± 0.23 kcal/mol
SAGGSAGGSAGSIKEALKKLKPGDTVEIEITLKDGSKIKIRVKVIRDKKTKKYKVKIEIESAGGSAGGSAGG [r11_343_TrROS_Hall] | 3.84 ± 0.077 kcal/mol
GSSMTVEVSESVVPGTGKKILHVTVTFGGSDPEVARAQALAYVEKETGLPVVSVTVTRAPDSWTVNMTVVGS [r1_337_JUSTAS] | 2.63 ± 0.032 kcal/mol
